Results reported in US20040265863, “Methods and compositions for synthesis of nucleic acid molecules using multiple recognition sites” (Invitrogen Corporation, published 2004).

Biological target: Vaccinia DNA topoisomerase I (Vaccinia virus, UniProt P68698 P68698:1-314)
Experiment: covalent topoisomerase-DNA complex isolated on SP Sepharose; cleaved linker band seen after proteinase K
Settings: tags: Invitrogen; nicked duplex with 3' overhang
Method: The topoisomerase-charged promoter linker was purified using an Akta-FPLC and Unicom software ver. 4.00 (Amersham). 360 μl of the linking reaction was loaded onto a 1 ml HiTrap SP Sepharose HP pre-packed column (Amersham) pre-equilibrated in buffer A (50 mM Tris-HCl pH 7.0), washed at 0.5 ml/min with 11 ml buffer A (collected in 1 ml fractions), and eluted with a 5 ml, 0-100% buffer B (50 mM Tris-HCl pH 7.0, 1M NaCl) gradient followed by 3 ml of 100% buffer B. The eluate was collected in 0.2 ml fractions.

B1: T7 TOPO linker (T7topG/T7botG/TOPO-5) (dsDNA)
DNA 1: GACTCGTAATACGACTCACTATAGGGCCCTTATTCCGATAGTG
DNA 2: AGGGCCCTATAGTGAGTCGTATTACGAGTCAAAAAAAAAAAA
DNA 3: CAACACTATCGGAATA
modifications: 5'-phosphate on each oligo
  binding result: binds
